Laboratory results reported in patent US20160326230A1 (SHANGHAI HENGRUI PHARMACEUTICAL, published 2016).
No end group written: not given here.

Molecular target: the receptor on THP-1 cells
Assay: cell-based or functional assay

EC50 (ng/ml) of cAMP induced in THP-1 cells (cAMP ELISA): 3.03 ng/mL
B1: recombinant human relaxin 800828 (WT, wild-type) (ligand)
chain 1: DSWMEEVIKLCGRELVRAQIAICGMSTWS
chain 2: QLYSALANKCCHVGCTKRSLARFC
modifications: not fully specified; ends and bridges not checked
